For three substances, increase in tryptophan fluorescence intensity of the C3d^A4H/C3d^W41A solution (100 µM, equimolar Sbi construct, excitation 295 nm), read as N-terminal helix swap, change in tryptophan fluorescence intensity of the C3d^A4H/C3d^W41A solution (100 µM, equimolar Sbi construct, excitation 295 nm), read as N-terminal helix swap and increase in melting temperature (Tm) of C3d^17A results are on record in paper PMC9174452.

Test [1] deals with C3d^A4H-C3d^W41A heterodimer (human).
The target in test [2] is human C3d^17A (monomeric) (human). Kind of test: near-UV circular dichroism thermal melt; 87.5 µM C3d^17C or C3d^17A alone or with an equimolar concentration of the Sbi construct, 10 mM sodium phosphate pH 7.4, 250-320 nm, 5°C to 85°C; Tm from Boltzmann sigmoidal fits at 280 and 296 nm. A general note: Circular dichroism is the unequal absorption of left and right circularly polarised light.

In the case of “Sbi domain IV (wild-type Sbi-IV) (from UniProt Q2FVK5 198-266) (domain or fragment)”, in test [1], the increase in tryptophan fluorescence intensity of the C3d^A4H/C3d^W41A solution (100 µM, equimolar Sbi construct, excitation 295 nm), read as N-terminal helix swap was 27%.
With “Sbi domains III and IV (wild-type Sbi-III-IV) (from UniProt Q2FVK5 150-266) (domain or fragment)”, in test [1], the increase in tryptophan fluorescence intensity of the C3d^A4H/C3d^W41A solution (100 µM, equimolar Sbi construct, excitation 295 nm), read as N-terminal helix swap was 17%.
As for “truncated Sbi-IV mutant Sbi-IV^V198-D208del (from UniProt Q2FVK5 198-266) (domain or fragment)”, the change in tryptophan fluorescence intensity of the C3d^A4H/C3d^W41A solution (100 µM, equimolar Sbi construct, excitation 295 nm), read as N-terminal helix swap in test [1] amounted to 2.5%. For the same substance, the increase in melting temperature (Tm) of C3d^17A in test [2] was found to be 6.5 °C.
